Laboratory results reported in the supplement of paper PMC10266784.

B1: library; numbered along this chain (parent)
chain: MAAAAAAAAEQQSSNGPVKKSMREKAVERRSVNKEHNSNFKAGYIPIDEDRLHKTGLRGRKGNLAICVIILLFILAVINLIITLVIWAVIRIGPNGCDSMEFHESGLLRFKQVSDMGVIHPLYKSTVGGRRNENLVITGNNQPIVFQQGTTKLSVENNKTSITSDIGMQFFDPRTQNILFSTDYETHEFHLPSGVKSLNVQKASTERITSNATSDLNIKVDGRAIVRGNEGVFIMGKTIEFHMGGNMELKAENSIILNGSVMVSTTRLPSSSSGDQLGSGDWVRYKLCMCADGTLFKVQVTSQNMGCQISDNPCGNTH

Variants of: B1
Assay: SGCB cell-surface expression functional score (HA stain, bin4 vs bin1, normalised to synonymous) (log10 ratio); higher = more cell-surface SGCB (functional)
Experimental: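 Deep mutational scan of full-length human SGCB (YFP-SGCB-HA, NNN codon sublibraries A-F) delivered by lentivirus at low MOI into ADG-HEK293 cells stably expressing SGCA, SGCD and SGCG. YFP-positive cells were stained for surface HA on unpermeabilized cells and FACS-sorted into bins. The functional score is log10(frequency in high bin 4 / frequency in low bin 1), normalised per chunk so that synonymous variants have mean 0 and SD 0.5. Scores are the median over codons and over duplicate biological replicates; scores below -0.5 are called non-functional. Scale: negative means deleterious.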

Variant	SGCB cell-surface expression functional score (log10)
MAAAAAAAAEQQSSNGPVKKSMREKAVERRSVNKEHNSNFKAGYIPIDEDRLHKTGLRGRKGNLAICVIILLFILAVINLIITLVIWAVIRIGPNGCDSMEFHESGLLRFKAVSDMGVIHPLYKSTVGGRRNENLVITGNNQPIVFQQGTTKLSVENNKTSITSDIGMQFFDPRTQNILFSTDYETHEFHLPSGVKSLNVQKASTERITSNATSDLNIKVDGRAIVRGNEGVFIMGKTIEFHMGGNMELKAENSIILNGSVMVSTTRLPSSSSGDQLGSGDWVRYKLCMCADGTLFKVQVTSQNMGCQISDNPCGNTH [Q112A]	-0.21
MAAAAAAAAEQQSSNGPVKKSMREKAVERRSVNKEHNSNFKAGYIPIDEDRLHKTGLRGRKGNLAICVIILLFILAVINLIITLVIWAVIRIGPNGCDSMEFHESGLLRFKCVSDMGVIHPLYKSTVGGRRNENLVITGNNQPIVFQQGTTKLSVENNKTSITSDIGMQFFDPRTQNILFSTDYETHEFHLPSGVKSLNVQKASTERITSNATSDLNIKVDGRAIVRGNEGVFIMGKTIEFHMGGNMELKAENSIILNGSVMVSTTRLPSSSSGDQLGSGDWVRYKLCMCADGTLFKVQVTSQNMGCQISDNPCGNTH [Q112C]	-0.81
MAAAAAAAAEQQSSNGPVKKSMREKAVERRSVNKEHNSNFKAGYIPIDEDRLHKTGLRGRKGNLAICVIILLFILAVINLIITLVIWAVIRIGPNGCDSMEFHESGLLRFKEVSDMGVIHPLYKSTVGGRRNENLVITGNNQPIVFQQGTTKLSVENNKTSITSDIGMQFFDPRTQNILFSTDYETHEFHLPSGVKSLNVQKASTERITSNATSDLNIKVDGRAIVRGNEGVFIMGKTIEFHMGGNMELKAENSIILNGSVMVSTTRLPSSSSGDQLGSGDWVRYKLCMCADGTLFKVQVTSQNMGCQISDNPCGNTH [Q112E]	-0.38
MAAAAAAAAEQQSSNGPVKKSMREKAVERRSVNKEHNSNFKAGYIPIDEDRLHKTGLRGRKGNLAICVIILLFILAVINLIITLVIWAVIRIGPNGCDSMEFHESGLLRFKDVSDMGVIHPLYKSTVGGRRNENLVITGNNQPIVFQQGTTKLSVENNKTSITSDIGMQFFDPRTQNILFSTDYETHEFHLPSGVKSLNVQKASTERITSNATSDLNIKVDGRAIVRGNEGVFIMGKTIEFHMGGNMELKAENSIILNGSVMVSTTRLPSSSSGDQLGSGDWVRYKLCMCADGTLFKVQVTSQNMGCQISDNPCGNTH [Q112D]	-0.16
MAAAAAAAAEQQSSNGPVKKSMREKAVERRSVNKEHNSNFKAGYIPIDEDRLHKTGLRGRKGNLAICVIILLFILAVINLIITLVIWAVIRIGPNGCDSMEFHESGLLRFMQVSDMGVIHPLYKSTVGGRRNENLVITGNNQPIVFQQGTTKLSVENNKTSITSDIGMQFFDPRTQNILFSTDYETHEFHLPSGVKSLNVQKASTERITSNATSDLNIKVDGRAIVRGNEGVFIMGKTIEFHMGGNMELKAENSIILNGSVMVSTTRLPSSSSGDQLGSGDWVRYKLCMCADGTLFKVQVTSQNMGCQISDNPCGNTH [K111M]	-0.31
MAAAAAAAAEQQSSNGPVKKSMREKAVERRSVNKEHNSNFKAGYIPIDEDRLHKTGLRGRKGNLAICVIILLFILAVINLIITLVIWAVIRIGPNGCDSMEFHESGLLRFFQVSDMGVIHPLYKSTVGGRRNENLVITGNNQPIVFQQGTTKLSVENNKTSITSDIGMQFFDPRTQNILFSTDYETHEFHLPSGVKSLNVQKASTERITSNATSDLNIKVDGRAIVRGNEGVFIMGKTIEFHMGGNMELKAENSIILNGSVMVSTTRLPSSSSGDQLGSGDWVRYKLCMCADGTLFKVQVTSQNMGCQISDNPCGNTH [K111F]	-0.85
MAAAAAAAAEQQSSNGPVKKSMREKAVERRSVNKEHNSNFKAGYIPIDEDRLHKTGLRGRKGNLAICVIILLFILAVINLIITLVIWAVIRIGPNGCDSMEFHESGLLRFYQVSDMGVIHPLYKSTVGGRRNENLVITGNNQPIVFQQGTTKLSVENNKTSITSDIGMQFFDPRTQNILFSTDYETHEFHLPSGVKSLNVQKASTERITSNATSDLNIKVDGRAIVRGNEGVFIMGKTIEFHMGGNMELKAENSIILNGSVMVSTTRLPSSSSGDQLGSGDWVRYKLCMCADGTLFKVQVTSQNMGCQISDNPCGNTH [K111Y]	-0.7
MAAAAAAAAEQQSSNGPVKKSMREKAVERRSVNKEHNSNFKAGYIPIDEDRLHKTGLRGRKGNLAICVIILLFILAVINLIITLVIWAVIRIGPNGCDSMEFHESGLLRFPQVSDMGVIHPLYKSTVGGRRNENLVITGNNQPIVFQQGTTKLSVENNKTSITSDIGMQFFDPRTQNILFSTDYETHEFHLPSGVKSLNVQKASTERITSNATSDLNIKVDGRAIVRGNEGVFIMGKTIEFHMGGNMELKAENSIILNGSVMVSTTRLPSSSSGDQLGSGDWVRYKLCMCADGTLFKVQVTSQNMGCQISDNPCGNTH [K111P]	-1.47
MAAAAAAAAEQQSSNGPVKKSMREKAVERRSVNKEHNSNFKAGYIPIDEDRLHKTGLRGRKGNLAICVIILLFILAVINLIITLVIWAVIRIGPNGCDSMEFHESGLLRFTQVSDMGVIHPLYKSTVGGRRNENLVITGNNQPIVFQQGTTKLSVENNKTSITSDIGMQFFDPRTQNILFSTDYETHEFHLPSGVKSLNVQKASTERITSNATSDLNIKVDGRAIVRGNEGVFIMGKTIEFHMGGNMELKAENSIILNGSVMVSTTRLPSSSSGDQLGSGDWVRYKLCMCADGTLFKVQVTSQNMGCQISDNPCGNTH [K111T]	-0.37
MAAAAAAAAEQQSSNGPVKKSMREKAVERRSVNKEHNSNFKAGYIPIDEDRLHKTGLRGRKGNLAICVIILLFILAVINLIITLVIWAVIRIGPNGCDSMEFHESGLLRFVQVSDMGVIHPLYKSTVGGRRNENLVITGNNQPIVFQQGTTKLSVENNKTSITSDIGMQFFDPRTQNILFSTDYETHEFHLPSGVKSLNVQKASTERITSNATSDLNIKVDGRAIVRGNEGVFIMGKTIEFHMGGNMELKAENSIILNGSVMVSTTRLPSSSSGDQLGSGDWVRYKLCMCADGTLFKVQVTSQNMGCQISDNPCGNTH [K111V]	-0.57
MAAAAAAAAEQQSSNGPVKKSMREKAVERRSVNKEHNSNFKAGYIPIDEDRLHKTGLRGRKGNLAICVIILLFILAVINLIITLVIWAVIRIGPNGCDSMEFHESGLLRFRQVSDMGVIHPLYKSTVGGRRNENLVITGNNQPIVFQQGTTKLSVENNKTSITSDIGMQFFDPRTQNILFSTDYETHEFHLPSGVKSLNVQKASTERITSNATSDLNIKVDGRAIVRGNEGVFIMGKTIEFHMGGNMELKAENSIILNGSVMVSTTRLPSSSSGDQLGSGDWVRYKLCMCADGTLFKVQVTSQNMGCQISDNPCGNTH [K111R]	-0.25
MAAAAAAAAEQQSSNGPVKKSMREKAVERRSVNKEHNSNFKAGYIPIDEDRLHKTGLRGRKGNLAICVIILLFILAVINLIITLVIWAVIRIGPNGCDSMEFHESGLLRFHQVSDMGVIHPLYKSTVGGRRNENLVITGNNQPIVFQQGTTKLSVENNKTSITSDIGMQFFDPRTQNILFSTDYETHEFHLPSGVKSLNVQKASTERITSNATSDLNIKVDGRAIVRGNEGVFIMGKTIEFHMGGNMELKAENSIILNGSVMVSTTRLPSSSSGDQLGSGDWVRYKLCMCADGTLFKVQVTSQNMGCQISDNPCGNTH [K111H]	-0.03
MAAAAAAAAEQQSSNGPVKKSMREKAVERRSVNKEHNSNFKAGYIPIDEDRLHKTGLRGRKGNLAICVIILLFILAVINLIITLVIWAVIRIGPNGCDSMEFHESGLLRFNQVSDMGVIHPLYKSTVGGRRNENLVITGNNQPIVFQQGTTKLSVENNKTSITSDIGMQFFDPRTQNILFSTDYETHEFHLPSGVKSLNVQKASTERITSNATSDLNIKVDGRAIVRGNEGVFIMGKTIEFHMGGNMELKAENSIILNGSVMVSTTRLPSSSSGDQLGSGDWVRYKLCMCADGTLFKVQVTSQNMGCQISDNPCGNTH [K111N]	-0.45
MAAAAAAAAEQQSSNGPVKKSMREKAVERRSVNKEHNSNFKAGYIPIDEDRLHKTGLRGRKGNLAICVIILLFILAVINLIITLVIWAVIRIGPNGCDSMEFHESGLLRFIQVSDMGVIHPLYKSTVGGRRNENLVITGNNQPIVFQQGTTKLSVENNKTSITSDIGMQFFDPRTQNILFSTDYETHEFHLPSGVKSLNVQKASTERITSNATSDLNIKVDGRAIVRGNEGVFIMGKTIEFHMGGNMELKAENSIILNGSVMVSTTRLPSSSSGDQLGSGDWVRYKLCMCADGTLFKVQVTSQNMGCQISDNPCGNTH [K111I]	-0.61
MAAAAAAAAEQQSSNGPVKKSMREKAVERRSVNKEHNSNFKAGYIPIDEDRLHKTGLRGRKGNLAICVIILLFILAVINLIITLVIWAVIRIGPNGCDSMEFHESGLLRFWQVSDMGVIHPLYKSTVGGRRNENLVITGNNQPIVFQQGTTKLSVENNKTSITSDIGMQFFDPRTQNILFSTDYETHEFHLPSGVKSLNVQKASTERITSNATSDLNIKVDGRAIVRGNEGVFIMGKTIEFHMGGNMELKAENSIILNGSVMVSTTRLPSSSSGDQLGSGDWVRYKLCMCADGTLFKVQVTSQNMGCQISDNPCGNTH [K111W]	0.03
MAAAAAAAAEQQSSNGPVKKSMREKAVERRSVNKEHNSNFKAGYIPIDEDRLHKTGLRGRKGNLAICVIILLFILAVINLIITLVIWAVIRIGPNGCDSMEFHESGLLRFLQVSDMGVIHPLYKSTVGGRRNENLVITGNNQPIVFQQGTTKLSVENNKTSITSDIGMQFFDPRTQNILFSTDYETHEFHLPSGVKSLNVQKASTERITSNATSDLNIKVDGRAIVRGNEGVFIMGKTIEFHMGGNMELKAENSIILNGSVMVSTTRLPSSSSGDQLGSGDWVRYKLCMCADGTLFKVQVTSQNMGCQISDNPCGNTH [K111L]	-0.35
MAAAAAAAAEQQSSNGPVKKSMREKAVERRSVNKEHNSNFKAGYIPIDEDRLHKTGLRGRKGNLAICVIILLFILAVINLIITLVIWAVIRIGPNGCDSMEFHESGLLRFQQVSDMGVIHPLYKSTVGGRRNENLVITGNNQPIVFQQGTTKLSVENNKTSITSDIGMQFFDPRTQNILFSTDYETHEFHLPSGVKSLNVQKASTERITSNATSDLNIKVDGRAIVRGNEGVFIMGKTIEFHMGGNMELKAENSIILNGSVMVSTTRLPSSSSGDQLGSGDWVRYKLCMCADGTLFKVQVTSQNMGCQISDNPCGNTH [K111Q]	-1
MAAAAAAAAEQQSSNGPVKKSMREKAVERRSVNKEHNSNFKAGYIPIDEDRLHKTGLRGRKGNLAICVIILLFILAVINLIITLVIWAVIRIGPNGCDSMEFHESGLLRFGQVSDMGVIHPLYKSTVGGRRNENLVITGNNQPIVFQQGTTKLSVENNKTSITSDIGMQFFDPRTQNILFSTDYETHEFHLPSGVKSLNVQKASTERITSNATSDLNIKVDGRAIVRGNEGVFIMGKTIEFHMGGNMELKAENSIILNGSVMVSTTRLPSSSSGDQLGSGDWVRYKLCMCADGTLFKVQVTSQNMGCQISDNPCGNTH [K111G]	-1.08
MAAAAAAAAEQQSSNGPVKKSMREKAVERRSVNKEHNSNFKAGYIPIDEDRLHKTGLRGRKGNLAICVIILLFILAVINLIITLVIWAVIRIGPNGCDSMEFHESGLLRFSQVSDMGVIHPLYKSTVGGRRNENLVITGNNQPIVFQQGTTKLSVENNKTSITSDIGMQFFDPRTQNILFSTDYETHEFHLPSGVKSLNVQKASTERITSNATSDLNIKVDGRAIVRGNEGVFIMGKTIEFHMGGNMELKAENSIILNGSVMVSTTRLPSSSSGDQLGSGDWVRYKLCMCADGTLFKVQVTSQNMGCQISDNPCGNTH [K111S]	-1.07
